Results: the supplement of paper PMC11246515
± gives the standard deviation of the averaged measurements.

Assay: total protein half-life in vivo (active degradation + dilution); higher = more stable protein
[1] = wild type E. coli NCM3722, growth: C-lim chemostat, doubling time 3 h
[2] = wild type E. coli NCM3722, growth: C-lim chemostat, doubling time 12 h
[3] = E. coli NCM3722 delta-clpP delta-lon delta-hslV, growth: N-lim chemostat, doubling time 6 h
[4] = E. coli NCM3722 delta-hslV, growth: N-lim chemostat, doubling time 6 h
[5] = E. coli NCM3722 delta-lon, growth: N-lim chemostat, doubling time 6 h
[6] = E. coli NCM3722 delta-smpB, growth: N-lim chemostat, doubling time 6 h
[7] = wild type E. coli NCM3722, growth: C-lim chemostat, doubling time 6 h
[8] = wild type E. coli NCM3722, growth: N-lim chemostat, doubling time 6 h
[9] = wild type E. coli NCM3722, growth: N-lim chemostat, doubling time 12 h
[10] = wild type E. coli NCM3722, growth: P-lim chemostat, doubling time 6 h
[11] = wild type E. coli NCM3722, growth: P-lim chemostat, doubling time 12 h
[12] = E. coli NCM3722 delta-clpP, growth: N-lim chemostat, doubling time 6 h

Sequence | total protein half-life in vivo [1] | total protein half-life in vivo [2] | total protein half-life in vivo [3] | total protein half-life in vivo [4] | total protein half-life in vivo [5] | total protein half-life in vivo [6] | total protein half-life in vivo [7] | total protein half-life in vivo [8] | total protein half-life in vivo [9] | total protein half-life in vivo [10] | total protein half-life in vivo [11] | total protein half-life in vivo [12]
MAKNYAALARSVIAALGGVDNISAVTHCMTRLRFVIKDDALIDSPTLKTIPGVLGVVRSDNQCQVIIGNTVSQAFQEVVSLLPGDMQPAQPVGKPKLTLRRIGAGILDALIGTMSPLIPAIIGGSMVKLLAMILEMSGVLTKGSPTLTILNVIGDGAFFFLPLMVAASAAIKFKTNMSLAIAIAGVLVHPSFIELMAKAAQGEHVEFALIPVTAVKYTYTVIPALVMTWCLSYIERWVDSITPAVTKNFLKPMLIVLIAAPLAILLIGPIGIWIGSAISALVYTIHGYLGWLSVAIMGALWPLLVMTGMHRVFTPTIIQTIAETGKEGMVMPSEIGANLSLGGSSLAVAWKTKNPELRQTALAAAASAIMAGISEPALYGVAIRLKRPLIASLISGFICGAVAGMAGLASHSMAAPGLFTSVQFFDPANPMSIVWVFAVMALAVVLSFILTLLLGFEDIPVEEAAAQARKYQSVQPTVAKEVSLN | 1.77 ± 0.078 h | 3.55 h | – | – | – | – | – | – | – | – | – | –
MAKQPGLDFQSAKGGLGELKRRLLFVIGALIVFRIGSFIPIPGIDAAVLAKLLEQQRGTIIEMFNMFSGGALSRASIFALGIMPYISASIIIQLLTVVHPTLAEIKKEGESGRRKISQYTRYGTLVLAIFQSIGIATGLPNMPGMQGLVINPGFAFYFTAVVSLVTGTMFLMWLGEQITERGIGNGISIIIFAGIVAGLPPAIAHTIEQARQGDLHFLVLLLVAVLVFAVTFFVVFVERGQRRIVVNYAKRQQGRRVYAAQSTHLPLKVNMAGVIPAIFASSIILFPATIASWFGGGTGWNWLTTISLYLQPGQPLYVLLYASAIIFFCFFYTALVFNPRETADNLKKSGAFVPGIRPGEQTAKYIDKVMTRLTLVGALYITFICLIPEFMRDAMKVPFYFGGTSLLIVVVVIMDFMAQVQTLMMSSQYESALKKANLKGYGR [P0AGA2] | 3.3 ± 0.39 h | 9.27 ± 3 h | 4.966 ± 0.022 h | 5.77 ± 1 h | 4.51 ± 0.048 h | 5.24 ± 1 h | 5.04 ± 0.31 h | 4.83 ± 0.52 h | 8.18 ± 0.17 h | 4.94 ± 0.68 h | 8.06 ± 0.49 h | –
MAKSVPAIFLDRDGTINVDHGYVHEIDNFEFIDGVIDAMRELKKMGFALVVVTNQSGIARGKFTEAQFETLTEWMDWSLADRDVDLDGIYYCPHHPQGSVEEFRQVCDCRKPHPGMLLSARDYLHIDMAASYMVGDKLEDMQAAVAANVGTKVLVRTGKPITPEAENAADWVLNSLADLPQAIKKQQKPAQ | 2.54 ± 0.091 h | 13.4 ± 3.2 h | 5.54 ± 0.29 h | 4.97 ± 0.51 h | 5.62 ± 0.25 h | 4.95 ± 0.083 h | 4.782 ± 0.0071 h | 5.05 ± 0.25 h | 8.7 ± 0.32 h | 5.49 ± 0.68 h | 11.4 ± 1.5 h | 5.269 ± 0.022 h
MALHDENVVWHSHPVTVQQRELHHGHRGVVLWFTGLSGSGKSTVAGALEEALHKLGVSTYLLDGDNVRHGLCSDLGFSDADRKENIRRVGEVANLMVEAGLVVLTAFISPHRAERQMVRERVGEGRFIEVFVDTPLAICEARDPKGLYKKARAGELRNFTGIDSVYEAPESAEIHLNGEQLVTNLVQQLLDLLRQNDIIRS [P0A6J1] | 1.86 ± 0.13 h | – | 4.97 ± 0.48 h | 2.03 ± 0.21 h | 2.4 ± 0.82 h | 1.72 ± 0.06 h | 4.8 ± 3 h | 2.41 h | 2.47 h | 2.07 h | 3.52 ± 0.087 h | 3.79 ± 0.44 h
MALKATIYKATVNVADLDRNQFLDASLTLARHPSETQERMMLRLLAWLKYADERLQFTRGLCADDEPEAWLRNDHLGIDLWIELGLPDERRIKKACTQAAEVALFTYNSRAAQIWWQQNQSKCVQFANLSVWYLDDEQLAKVSAFADRTMTLQATIQDGVIWLSDDKNNLEVNLTAWQQPS [P0AA97] | – | 8.84 ± 1.6 h | 5.6431 ± 0.0016 h | 4.82 ± 0.38 h | 5.25 ± 0.72 h | 3.354 ± 0.009 h | – | 4.38 h | 7.28 ± 0.26 h | 4.93 ± 0.28 h | – | 3.9 ± 0.19 h
MALLNIFDIAGSALTAQSQRLNVAASNLANADSVTGPDGQPYRAKQVVFQVNAAPGAATGGVKVADVIESQAPDKLVYEPGNPLADAKGYVKMPNVDVVGEMVNTMSASRSYQANVEVLNTVKSMMLKTLTLGQ [P0ABX2] | 0.544 ± 0.33 h | 1.79 ± 0.53 h | – | – | – | > 8 h | 0.417 h | 3.6 h | – | – | – | > 8 h
MALQNEKNSRYLLRDWKPENPAFWENKGKHIARRNLWISVSCLLLAFCVWMLFSAVTVNLNKIGFNFTTDQLFLLTALPSVSGALLRVPYSFMVPIFGGRRWTVFSTAILIIPCVWLGIAVQNPNTPFGIFIVIALLCGFAGANFASSMGNISFFFPKAKQGSALGINGGLGNLGVSVMQLVAPLVIFVPVFAFLGVNGVPQADGSVMSLANAAWIWVPLLAIATIAAWSGMNDIASSRASIADQLPVLQRLHLWLLSLLYLATFGSFIGFSAGFAMLAKTQFPDVNILRLAFFGPFIGAIARSVGGAISDKFGGVRVTLINFIFMAIFSALLFLTLPGTGSGNFIAFYAVFMGLFLTAGLGSGSTFQMIAVIFRQITIYRVKMKGGSDEQAHKEAVTETAAALGFISAIGAVGGFFIPQAFGMSLNMTGSPVGAMKVFLIFYIVCVLLTWLVYGRRKFSQK | 2.53 h | 13.7 ± 1.8 h | 6.73 ± 1.1 h | 6.57 ± 1.3 h | 6.52 ± 0.52 h | 6.07 ± 0.48 h | 6.34 ± 0.088 h | 4.92 ± 0.76 h | 10.8 ± 2.6 h | 7.05 h | 12.86 ± 0.088 h | 6.58 ± 0.92 h
MALTAALKAQIAAWYKALQEQIPDFIPRAPQRQMIADVAKTLAGEEGRHLAIEAPTGVGKTLSYLIPGIAIAREEQKTLVVSTANVALQDQIYSKDLPLLKKIIPDLKFTAAFGRGRYVCPRNLTALASTEPTQQDLLAFLDDELTPNNQEEQKRCAKLKGDLDTYKWDGLRDHTDIAIDDDLWRRLSTDKASCLNRNCYYYRECPFFVARREIQEAEVVVANHALVMAAMESEAVLPDPKNLLLVLDEGHHLPDVARDALEMSAEITAPWYRLQLDLFTKLVATCMEQFRPKTIPPLAIPERLNAHCEELYELIASLNNILNLYMPAGQEAEHRFAMGELPDEVLEICQRLAKLTEMLRGLAELFLNDLSEKTGSHDIVRLHRLILQMNRALGMFEAQSKLWRLASLAQSSGAPVTKWATREEREGQLHLWFHCVGIRVSDQLERLLWRSIPHIIVTSATLRSLNSFSRLQEMSGLKEKAGDRFVALDSPFNHCEQGKIVIPRMRVEPSIDNEEQHIAEMAAFFRKQVESKKHLGMLVLFASGRAMQRFLDYVTDLRLMLLVQGDQPRYRLVELHRKRVANGERSVLVGLQSFAEGLDLKGDLLSQVHIHKIAFPPIDSPVVITEGEWLKSLNRYPFEVQSLPSASFNLIQQVGRLIRSHGCWGEVVIYDKRLLTKNYGKRLLDALPVFPIEQPEVPEGIVKKKEKTKSPRRRRR | 2.59 ± 0.09 h | 9.99 ± 0.84 h | 5.64 ± 0.42 h | 4.38 ± 0.61 h | 4.265 ± 0.026 h | 4.63 ± 0.33 h | 3.93 ± 0.69 h | 4.18 ± 0.2 h | 6.77 ± 1.1 h | 4.57 ± 0.25 h | 8.11 ± 0.31 h | 4.6 ± 0.54 h
MALTKAEMSEYLFDKLGLSKRDAKELVELFFEEIRRALENGEQVKLSGFGNFDLRDKNQRPGRNPKTGEDIPITARRVVTFRPGQKLKSRVENASPKDE [P0A6X7] | 3.249 ± 0.0028 h | – | – | – | 7.06 ± 0.79 h | 5.2 ± 0.41 h | – | 5.83 ± 0.23 h | – | 6.33 ± 0.39 h | 11.7 ± 1.9 h | 6.46 ± 1 h
